# Measurements from article PMC8865655.
# B1: EGFP-WTAP, Q15007 1-396 (natural protein)
# chain: MTNEEPLPKKVRLSETDFKVMARDELILRWKQYEAYVQALEGKYTDLNSNDVTGLRESEEKLKQQQQESARRENILVMRLATKEQEMQECTTQIQYLKQVQQPSVAQLRSTMVDPAINLFFLKMKGELEQTKDKLEQAQNELSAWKFTPDSQTGKKLMAKCRMLIQENQELGRQLSQGRIAQLEAELALQKKYSEELKSSQDELNDFIIQLDEEVEGMQSTILVLQQQLKETRQQLAQYQQQQSQASAPSTSRTTASEPVEQSEATSKDCSRLTNGPSNGSSSRQRTSGSGFHREGNTTEDDFPSSPGNGNKSSNSSEERTGRGGSGYVNQLSAGYESVDSPTGSENSLTHQSNDTDSSHDPQEEKAVSGKGNRTVGSRHVQNGLDSSVNVQGSVL
# Molecular target: Cry2-mCh-METTL3 (wild type, full-length construct), Q86U44
# Experiment: FRET or BRET; FLIM-FRET in live HEK293T; EGFP fusion as donor, Cry2-mCh-METTL3 (mCherry) as acceptor; photons collected from inside condensates formed after blue light illumination (30 seconds)
# Settings: remark: other sources report otherwise
# Chain of Cry2-mCh-METTL3 (wild type, full-length construct), Q86U44 (Q86U44 whole entry, the tested form may be a part): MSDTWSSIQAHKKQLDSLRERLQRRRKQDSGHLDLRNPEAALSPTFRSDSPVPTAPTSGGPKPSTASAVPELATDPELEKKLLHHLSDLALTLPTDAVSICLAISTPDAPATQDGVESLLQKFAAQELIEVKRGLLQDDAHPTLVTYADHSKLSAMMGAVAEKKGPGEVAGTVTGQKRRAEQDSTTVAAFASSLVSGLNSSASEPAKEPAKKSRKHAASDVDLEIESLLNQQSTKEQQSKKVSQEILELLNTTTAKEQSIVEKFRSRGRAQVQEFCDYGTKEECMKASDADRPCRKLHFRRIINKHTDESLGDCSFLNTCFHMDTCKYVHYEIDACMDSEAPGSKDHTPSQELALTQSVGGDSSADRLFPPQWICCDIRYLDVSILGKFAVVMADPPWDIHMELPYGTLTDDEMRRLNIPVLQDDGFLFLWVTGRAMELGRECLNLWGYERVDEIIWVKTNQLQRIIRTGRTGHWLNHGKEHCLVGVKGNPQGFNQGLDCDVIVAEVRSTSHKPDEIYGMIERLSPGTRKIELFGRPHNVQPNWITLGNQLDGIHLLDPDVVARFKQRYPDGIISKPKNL
binder,measurement,value
B1,EGFP fluorescence lifetime (FLIM-FRET),2.01 ns
